According to patent US20190092852A1 (Genentech, published 2019):
Numbering of substitutions follows the chain as printed. Several values for one entry are separate records, joined by “and”; a condition that tells them apart may be missing. Equal values may be shown once.

T1: human IL-33 (Genentech, huIL33.his) (human, UniProt O95760 112-270)
T1 sequence (looked up): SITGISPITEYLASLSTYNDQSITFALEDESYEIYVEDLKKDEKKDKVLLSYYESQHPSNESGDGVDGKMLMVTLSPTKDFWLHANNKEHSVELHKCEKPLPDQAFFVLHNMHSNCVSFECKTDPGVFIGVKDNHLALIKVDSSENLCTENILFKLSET

T2: human IL-33 (cell-based blocking assay of Example 2) (human, UniProt O95760 112-270)
T2 sequence (looked up): T1 sequence (looked up)

T3: cyno IL-33 (cell-based blocking assay of Example 2) (cynomolgus monkey, UniProt A0A2K5W3I1 95-269)
T3 sequence: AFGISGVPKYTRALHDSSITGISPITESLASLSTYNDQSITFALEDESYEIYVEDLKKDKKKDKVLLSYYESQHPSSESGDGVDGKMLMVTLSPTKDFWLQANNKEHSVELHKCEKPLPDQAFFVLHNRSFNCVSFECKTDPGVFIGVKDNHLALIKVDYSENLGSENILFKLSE

T4: cyno IL-33 N-His (cynomolgus monkey)
T4 chain: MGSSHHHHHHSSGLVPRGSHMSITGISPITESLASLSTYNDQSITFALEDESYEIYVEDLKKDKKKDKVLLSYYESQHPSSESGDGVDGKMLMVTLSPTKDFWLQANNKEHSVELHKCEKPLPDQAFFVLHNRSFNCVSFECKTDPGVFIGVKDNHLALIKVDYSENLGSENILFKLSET

T5: biotinylated cyno IL-33 (cynomolgus monkey, UniProt A0A2K5W3I1 112-269, biotin-labeled with EZ-LINK NHS-PEG4-Biotin)
T5 construct: also called biotin-cyIL-33
T5 sequence: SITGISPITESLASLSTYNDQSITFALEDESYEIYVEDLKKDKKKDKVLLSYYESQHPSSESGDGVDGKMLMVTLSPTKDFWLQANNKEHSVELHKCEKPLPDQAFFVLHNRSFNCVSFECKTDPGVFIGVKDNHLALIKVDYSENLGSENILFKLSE

B1: 10H2.36.F10.30V.54D (antibody, V domains shown)
VH: EVQLVESGGGLVQPGGSLRLSCAASGFTFSNYWMNWVRQAPGKGLEWMAEITLKFNDYSTHYAESVKGRFTISRDNSKNTVYLQMNSLRAEDTAVYYCARRNYGNWYINVWGQGTLVTVSS
VL: DIVMTQSPDSLAVSLGERATINCRASESVDKFGVSFLNWYQQKPGQPPKLLIFVASSQGSGVPDRFSGSGSGTDFTLTISSLQAEDVAVYYCQQSKDIPYTFGQGTKVEIK
notes: Humanized variant of 10H2
B2: 9F6.34.E10 (antibody, V domains shown)
VH: EVQLVQSGAEVKKPGASVKVSCKASGYTFTSYWINWVRQAPGQGLEWIGRIAPGSGFISYNELFKDRVTITRDTSTSTAYLELSSLRSEDTAVYYCAREFYYGSFYGGFAYWGQGTLVTVSS
VL: DIQMTQSPSSLSASVGDRVTITCHASQNIHVWLSWYQQKPGKAPKLLIYKASTLHTGVPSRFSGSGSGTDFTLTISSLQPEDFATYYCQQGQSSPLTFGQGTKVEIK
notes: Humanized variant of 9F6
B3: 2B6.54S (antibody, V domains shown)
VH: EVQLVQSGAEVKKPGASVKVSCKASGYTFSDYNMNWVRQAPGQGLESIGDINPKSGDTFYNQNFKDRATLTIDKSTSTAYLELSSLRSEDTAVYYCARHYYYGSSYGGFVYWGQGTLVTVSS
VL: B2 VL with H30N, A43N, K50A, T53K, S94Y
notes: Humanized variant of 2B6
B4: 2B6.55A (NA) (antibody, V domains shown)
VH: B3 VH with S55N, G56A
VL: B2 VL with H30N, A43N, K50A, T53K, S94Y
notes: Humanized variant of 2B6
B5: H4H9672P (antibody, V domains shown)
VH: EVQLVESGGGLVQPGGSLRLSCAASGFTLRSYVMYWVRQGPGKGLEGVSGISGSSGGTYYTDSVKGRFTISRDNSKNTLFLQMNSLRAEDTAVYFCARSVYSTTWYGGFQHWGQGTLVTVSS
VL: DIQMTQSPSSVSVSVGDRVTITCRASQVISSWLAWYQLKPGKAPKLLIYAASSLQSGVPSRFSGSGSGTDFTLTISGLQPEDFAVYYCQQTNSFPLTFGGGTKVEIK
B6: H4H9664P (antibody, V domains shown)
VH: QVQLVESGGGVVQPGRSLRLSCAASGFTFSSYGLHWVRQSPGKGLEWVALISYDGSNKYYADSVKGRFTISRDNSKNTLYLQMNSLRPEDTAGYFCAKSLYTTSWYGGFDYWGQGTLVTVSS
VL: DIQMTQSPSSVSASVGDRVTITCRASQGIRSWLAWYQQKPGKAPNLLIYAASSLQSGVPSRFSGSGSGTDFTLTISSLQPEDFATYYCQQANSFPPTFGPGTKVDIK
B7: H4H9666P (antibody, V domains shown)
VH: QVQLVQSGAEVKKPGASVKVSCKASGYTFTSYGISWVRQAPGQGLEWMGWIRAYNGYTNYAQKFQGRVTMTTDTSTNTAYMELRTLNSDDTAVYYCARDRYSGSFHGNFDYWGQGTLVTVSS
VL: B6 VL with R30F, N45K, L46V, S53N, Q55E, F94L, P96L, P100G, D105E
B8: H4H9667P (antibody, V domains shown)
VH: EVQLVESGGGLVQPGGSLRLSCAASGFTFSTYSMHWVRQAPGKGLEYVSTINNNGDTTYYADSVKGRFTISRDNSKNTLYLQLGSLRPEDMAVYYCARQTYTSSWYGGFDSWGQGTLVTVSS
VL: B6 VL with R30T, N45K, S53N, S76T, F94L, P96F
B9: H4H9676P (antibody, V domains shown)
VH: EVQLVESGGGLVQPGGSLRLSCSASGFTFSSYAMNWVRQAPGKGLEWVTAISGSGGGTYYADSVKGRFTISRDNSKNSLFLQLNSLRAEDTAVYYCAKQTYTSSWYGGFDIWGQGTMVTVSS
VL: B6 VL with I29F, R30S, K39I, N45K, S53R, S63R, P96L, P100G, D105E
B10: H4H9670P (antibody, V domains shown)
VH: EVQLVESGGGLVQPGGSLRLSCAASGFTLSSYAMSWVRQAPGKGLEWVSAISGSGGSTYYADSVKGRFTISRDNSKNSLYLQLNSLRAEDTAVYYCAKTLYTTSWYGGFQHWGQGTLVTVSS
VL: DIQMTQSPSSVSASIGDRVTITCRASQGISSWLAWYQQKPGKVPKLLIYAASSLQSGFPSRFSGSGSGTDFTLTISSLQPEDFATYYCQQTHSFPWTVGQGTKVEIK

What follows are binders tested against T1, human IL-33 (Genentech, huIL33.his) (assay: SPR Biacore).

Row | Kd [nM] | Binder
1 | 0.22 | B1
2 | 0.795 | B2
3 | 336 | B3
4 | 0.363 | B4

These binders were tested against T2, human IL-33 (cell-based blocking assay …) (assay: cell-based or functional assay).

Row | Cell assay (hu) IC90 | Binder
5 | 0.344 µg/mL and 2.27 nM | B1
6 | 0.0128 µg/mL and 0.84 nM | B2

The binders below were run against T3, cyno IL-33 (cell-based blocking assay …) (assay: cell-based or functional assay).

Row | Cell assay (cy) IC90 | Binder
7 | > 1.5 µg/mL and > 9.9 nM | B1
8 | > 1.5 µg/mL and > 9.9 nM | B2

Molecular target: T4, cyno IL-33 N-His
Test: SPR Biacore T200, 25 C
Description: (§1) The binding kinetics of the anti-IL-33 antibody 10C12.38.H6.87Y.58I IgG4 and each anti-IL-33 antibody listed in Table 5 (RG1-RG20) to IL-33 were measured using surface plasmon resonance (SPR) on a BIACORE® T200 instrument (GE Healthcare). Anti-human Fc or anti-murine Fc (GE Healthcare, #BR-1008-39 or BR-1008-38, respectively) was immobilized on a CM5 sensor chip via amine-based coupling according to the manufacturer's protocol. Surfaces were used to capture monoclonal human IgG4 and monoclonal murine IgGs for kinetic studies. Antibody binding was measured to human IL-33 (R&D systems, #3625-IL-010/CF) and cyno IL-33 N-His (SEQ ID NO: 317) (Genentech, Inc.). A three-fold concentration series of cytokine with a range of 3.7 to 100 nM was used for the experiments. Sensograms for binding of IL-33 were recorded using an injection time of 4 min with a flow rate of 30 μl/minute with a running buffer of 0.01 M N-(2-Acetamido)iminodiacetic acid (ADA) pH 7.4, 0.15 M NaCl, 3 mM EDTA, and 0.05% TWEEN®-20. After injection, disassociation of the ligand from the antibody was monitored for 10 min in running buffer. The surface was regenerated in between cycles with an injection of 3 M magnesium chloride or Glycine-HCl pH 1.7. All binding experiments were performed at a temperature of 25′C and 37° C. After subtraction of a blank which contained running buffer only, sensograms observed for IL-33 binding to anti-IL-33 antibodies were analyzed using a 1:1 Langmuir binding model with software supplied by the manufacturer to calculate the kinetics and binding constants, including the dissociation constant (KD). Dissociative half-lives (t_{1/2}) were calculated from the kinetic rate constants. KD (M)=koff/kₒₙ and t_{1/2} (min)=ln(2)/(60*koff). […] In Tables 6-9, *IC indicates the result is inconclusive due to weak capture of antibody was observed, leading to poor binding data.

Row | Kd [nM] | koff [s⁻¹] | kon [M⁻¹ s⁻¹] | t1/2 [min] | Binder
9 | 5.74 | 0.0019 | 331000 | 6 | B5
10 | 5.62 | 0.000556 | 99000 | 21 | B6
11 | 38 | 0.00625 | 164000 | 2 | B7
12 | 2.83 | 0.00059 | 208000 | 20 | B8
13 | 3.15 | 0.00248 | 787000 | 5 | B9
14 | 2.63 | 0.000557 | 212000 | 21 | B10

Molecular target: T4, cyno IL-33 N-His
Test: SPR Biacore T200, 37 C
Description: as §1

Row | Kd [nM] | koff [s⁻¹] | kon [M⁻¹ s⁻¹] | t1/2 [min] | Binder
15 | 13 | 0.00757 | 584000 | 2 | B5
16 | 10.4 | 0.00213 | 205000 | 5 | B6
17 | 47.4 | 0.0139 | 293000 | 1 | B7
18 | 5.38 | 0.00214 | 398000 | 5 | B8
19 | 6.93 | 0.0111 | 1.6e+06 | 1 | B9
20 | 5.82 | 0.00221 | 380000 | 5 | B10

These binders were tested against T5, biotinylated cyno IL-33 (assay: competitive ELISA, biotin-cyIL-33 to coated hST2-Fc).
Description: The ability of the anti-IL-33 antibody 10C12.38.H6.87Y.58I IgG4 and each anti-IL-33 antibody listed in Table 5 (RG1-RG20) to block either human IL-33 or cyno IL-33 binding to human ST2 receptor was tested in a competitive binding ELISA. Briefly, 1 μg/ml of recombinant human ST2-Fc chimera protein prepared in coating buffer (50 mM sodium carbonate, pH 9.6) was coated on a 384-well MAXISORP® plate (Nalgene Nunc International; Rochester, N.Y.) and incubated overnight at 4° C. On the next day, non-specific binding was blocked with PBS containing 0.5% (w/v) solution of bovine serum albumin (BSA). Fixed concentrations of biotinylated human or cyno IL-33 prepared in assay buffer (25 mM PBS, pH 7.2, 0.1% BSA, 0.05% TWEEN®-20) were mixed with an equal volume of serially-diluted anti-IL-33 antibodies or assay buffer alone and incubated for 1 h at room temperature. The final assay concentrations of biotinylated human IL-33 or cyno IL-33 were 20 pM and 45 pM, respectively, and the final assay concentration of each antibody ranged from 0-300 nM. The pre-mixed solutions were added to the ST2-Fc coated plate and incubated for 1 h at room temperature. The binding of biotinylated IL-33 to coated ST2-Fc was detected by the sequential addition of Streptavidin Poly-HRP80 (Fitzgerald; Buckinghamshire, UK) and 3,3′,5,5′-tetramethyl benzidine (TMB) Microwell Peroxidase Substrate System (KPL; Gaithersburg, Md.). The absorbance (450 nm) was recorded using a […] ASCENT® plate reader (Thermo Scientific; Rockford, Ill.). The binding activity (%) of biotin-IL-33 to ST2 in the presence of anti-IL-33 was plotted as a function of antibody concentration. The data generated were fitted to a four-parameter equation to determine IC₅₀ values for each antibody (FIGS. 25A and 25B) using Prism software (Graphpad Software; La Jolla, Calif.). The maximum blocking (%) of each antibody was calculated as the ratio of the reduction in signal measured in the presence of antibody relative to the difference between the signal with IL-33 alone and background measurements.

Row | Maximum Blocking [%] | IC50 [nM] | Binder
21 | 10 | – | B6
22 | 7 | – | B8
23 | 27 | 150 | B10
